The record followed here is US10519238 (Dana-Farber, dated 2019).

In assay [1] the target is T1, recombinant GST-tagged full length human Gal1 (F7) (human, UniProt P09382 1-135).
T1 construct: Produced in E. coli; also called GST-F7; not shown: glutathione S-transferase (GST) tag
Briefly: Western blot. The procedure:
Anti-Gal1 monoclonal antibodies were generated and were determined to cross-react well with both human Gal1 and mouse Gal1 (FIG. 1). […] Six recombinant human Gal1 fragments (covering the N-terminal, CBD, post-CBD sequences) named F1, F2, F3, F4, F5, F6 and the full length protein F7 in fusion with GST-tag were produced in E. coli (FIG. 2).

The target of assay [2] is T2, endogenous human Gal1 (galectin-1) in lysates of the human Hodgkin lymphoma line L428 (human, UniProt P09382 2-135).
T2 construct: Endogenous protein in cell lysate, seen as a band of ~14 kDa on Western blot; also called hGal1
T2 sequence (P09382 2-135 limits assumed): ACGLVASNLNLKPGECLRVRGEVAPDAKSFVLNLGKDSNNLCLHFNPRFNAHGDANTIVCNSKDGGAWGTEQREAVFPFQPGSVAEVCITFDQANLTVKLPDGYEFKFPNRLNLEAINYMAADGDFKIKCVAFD
Briefly: Western blot of L428 cell lysate, antibody titration. The text has this:
(§1) WB analysis of cell lysates derived from human Hodgkin lymphoma line, L428 and murine melanoma line, B16-F10. Lysates were probed with 8A12 at different titration showing a specific band of Gal1 (~14 kDa), 8A12 recognizes endogenous human and murine Gal1 at similar range of titres.
On the technique in general: Immunoblotting shows a protein as a band on a membrane.

Assay [3] has as its target T3, endogenous murine Gal1 (galectin-1) in lysates of the murine melanoma line B16-F10 (mouse, UniProt P16045 2-135).
T3 construct: Endogenous protein in cell lysate, seen on Western blot; also called mouse Gal1
As to the kind of experiment: Western blot of B16-F10 cell lysate, antibody titration.
Source text: as §1

Assay [4] addresses T4, recombinant human galectin-2 (R&D Systems) (human, UniProt P05162 1-132, limits assumed).
T4 construct: also called Gal2
T4 sequence (looked up): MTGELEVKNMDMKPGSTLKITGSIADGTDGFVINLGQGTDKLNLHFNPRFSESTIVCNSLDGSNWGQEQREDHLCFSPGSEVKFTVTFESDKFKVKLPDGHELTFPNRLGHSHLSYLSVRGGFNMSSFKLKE
Briefly: SPR (BIAcore 3000), 8A12 captured via anti-mouse antibody, galectin as analyte. On the procedure: (§2) Surface Plasmon Resonance (SPR) analyses (also called Biomolecular Interaction Analysis, BIAcore) were also conducted in order to further define the biophysical properties (e.g., $kon$, $koff$, $koff/kon$ (K_D) of Gal1's interaction with the 8A12 mAb. SPR experiments were performed at 25° C. in the standard BIAcore running buffer HBS-EP on a BIAcore 3000 Instrument (BIAcore). In brief, anti-mouse antibody was first captured on the CM-5 sensor chip ((GE HealthCare). Afterwards, approximately 250 response units (RU) of anti-Gal1 mAb 8A12 were immobilized (with exception of ~350 RU for rmGal1 assay) and followed by various dilutions of recombinant galectin (human galetin-1, 2, 3, 4, 7, 8, 9 or murine galectin-1 (mGal1), from R&D Systems) to assess the binding of galectin 8A12. All data are shown after subtraction from a channel loaded with buffer alone. Data analysis to obtain the binding curves shown and equilibrium dissociation constant (KD) was performed using BIAevaluation 3.1 (BIAcore) by globally fitting the data to a simple 1:1 (Langmuir) binding model.

Assay [5] has as its target T5, recombinant human galectin-3 (R&D Systems) (human, UniProt P17931 2-250).
T5 construct: also called Gal3
The assay is described as above. The procedure: as §2

Assay [6] addresses T6, recombinant human galectin-4 (R&D Systems) (human, UniProt P56470 2-323, limits assumed).
T6 construct: also called Gal4
T6 sequence (looked up): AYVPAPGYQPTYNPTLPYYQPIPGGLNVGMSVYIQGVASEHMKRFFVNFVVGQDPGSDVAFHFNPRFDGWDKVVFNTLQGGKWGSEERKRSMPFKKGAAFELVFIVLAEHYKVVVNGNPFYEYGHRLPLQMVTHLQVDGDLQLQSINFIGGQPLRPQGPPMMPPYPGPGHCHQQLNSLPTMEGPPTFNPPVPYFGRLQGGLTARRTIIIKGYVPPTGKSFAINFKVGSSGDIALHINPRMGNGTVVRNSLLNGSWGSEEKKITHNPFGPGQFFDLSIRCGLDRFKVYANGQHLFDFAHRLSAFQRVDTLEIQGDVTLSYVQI
Described as above. On the procedure:
as §2

Assay [7] addresses T7, recombinant human galectin-7 (R&D Systems) (human, UniProt P47929 2-136, limits assumed).
T7 construct: also called Gal7
The description is as above. On the procedure:
as §2

Assay [8] addresses T8, recombinant human galectin-8 (R&D Systems) (human, UniProt O00214 1-317, limits assumed).
T8 construct: also called Gal8
T8 sequence (looked up): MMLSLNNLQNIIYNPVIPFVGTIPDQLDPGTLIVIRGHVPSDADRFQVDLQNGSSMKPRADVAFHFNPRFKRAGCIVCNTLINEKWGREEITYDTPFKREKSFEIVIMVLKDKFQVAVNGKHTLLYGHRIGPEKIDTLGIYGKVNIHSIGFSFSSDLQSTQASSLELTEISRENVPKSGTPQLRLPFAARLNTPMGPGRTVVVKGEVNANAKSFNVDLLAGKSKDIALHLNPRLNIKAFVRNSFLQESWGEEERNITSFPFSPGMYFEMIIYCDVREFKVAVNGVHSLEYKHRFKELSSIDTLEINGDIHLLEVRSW
Described as above. The procedure:
as §2

Assay [9] has as its target T9, recombinant human galectin-9 (R&D Systems) (human, UniProt O00182-2 2-323, limits assumed).
T9 construct: also called Gal9
Described as above. The procedure: as §2

The target of assay [10] is T10, recombinant human galectin-1 (R&D Systems) (human, UniProt P09382 2-135).
T10 construct: Bought from R&D Systems; also called rhGal1; human galetin-1
T10 sequence (P09382 2-135 limits assumed): as the sequence (P09382 2-135 limits assumed) above
Briefly: SPR (BIAcore 3000, 25 C), 8A12 captured via anti-mouse antibody, galectin as analyte, 1:1 Langmuir fit. The procedure:
as §2
(In general: Surface plasmon resonance follows binding to a sensor surface in real time, without labels.)

The target of assay [11] is T11, recombinant murine galectin-1 (R&D Systems) (mouse, UniProt P16045 2-135).
T11 construct: Bought from R&D Systems; also called rmGal1; mGal1
T11 sequence (P16045 2-135 limits assumed): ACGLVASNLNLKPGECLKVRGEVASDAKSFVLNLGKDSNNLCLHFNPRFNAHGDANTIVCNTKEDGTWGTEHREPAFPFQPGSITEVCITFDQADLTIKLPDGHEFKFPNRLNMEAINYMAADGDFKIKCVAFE
The assay is described as above. The procedure:
as §2

T9 sequence (O00182 other isoform, or with tags, fused parts or gaps limits assumed): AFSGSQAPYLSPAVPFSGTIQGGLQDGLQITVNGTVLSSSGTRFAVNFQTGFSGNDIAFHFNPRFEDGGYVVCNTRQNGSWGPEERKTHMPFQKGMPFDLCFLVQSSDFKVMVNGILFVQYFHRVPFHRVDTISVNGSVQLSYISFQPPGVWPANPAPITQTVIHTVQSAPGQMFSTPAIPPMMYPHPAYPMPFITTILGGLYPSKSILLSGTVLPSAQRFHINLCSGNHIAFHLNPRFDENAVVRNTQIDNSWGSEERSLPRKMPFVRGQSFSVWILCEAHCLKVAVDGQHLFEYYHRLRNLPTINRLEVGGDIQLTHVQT
T5 sequence (P17931 2-250 limits assumed): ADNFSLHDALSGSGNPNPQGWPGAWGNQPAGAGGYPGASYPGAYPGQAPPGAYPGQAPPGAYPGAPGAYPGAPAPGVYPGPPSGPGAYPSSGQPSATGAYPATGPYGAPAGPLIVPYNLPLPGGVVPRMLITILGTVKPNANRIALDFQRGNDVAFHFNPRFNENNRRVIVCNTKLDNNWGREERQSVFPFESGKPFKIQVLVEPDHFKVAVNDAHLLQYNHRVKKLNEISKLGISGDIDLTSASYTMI
T1 sequence (P09382 whole entry): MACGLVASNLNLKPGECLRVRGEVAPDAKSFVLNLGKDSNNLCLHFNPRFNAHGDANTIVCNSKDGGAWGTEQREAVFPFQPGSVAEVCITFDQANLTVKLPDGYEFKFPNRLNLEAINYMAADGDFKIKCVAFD
T3 sequence (P16045 2-135 limits assumed): as the sequence (P16045 2-135 limits assumed) above
T7 sequence (P47929 2-136 limits assumed): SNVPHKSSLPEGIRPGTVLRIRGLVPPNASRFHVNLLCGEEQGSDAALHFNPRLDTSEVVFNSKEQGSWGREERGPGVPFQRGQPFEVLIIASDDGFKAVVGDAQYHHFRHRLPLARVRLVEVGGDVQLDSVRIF

B1: anti-Gal1 monoclonal antibody 8A12.H9.H10 (antibody, V domains shown)
VH: QAYLQQSGAELVRPGASVRMSCKASGYTFTRYNMHWVKQTPRQGLEWIGRIYPGNGDTSYNQKFKGKATLTVDKSSSTAYMQLSSLTSEDSAVYFCTVWDYWGQGTTLTVSS
VL: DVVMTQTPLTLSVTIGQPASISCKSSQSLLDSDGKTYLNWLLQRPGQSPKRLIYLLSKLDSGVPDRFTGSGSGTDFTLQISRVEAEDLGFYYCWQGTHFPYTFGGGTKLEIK
notes: Murine monoclonal antibody from a hybridoma with a kappa light chain; Signal peptide limits are stated in base pairs and were converted to residues; also called 8A12 mAb; 8A12 antibody
Consider B1, for which the binding result is “binds” in assay [1]; “binds” in assay [2]; “binds” in assay [3]; “no binding” in assay [4]; “no binding” in assay [5]; “no binding” in assay [6]. Besides, the binding result in assay [7] was “no binding”; in assay [8] it was “no binding”; in assay [9], “no binding”; in [10] it was “binds”; in assay [11] it was “binds”.
